Assay results from US5677146.

What was measured:
[1] = target: T1, Cathepsin G, purified at Novo Nordisk A/S using the method of Baugh and Travis
T1 sequence (P08311 21-244, species assumed, looked up): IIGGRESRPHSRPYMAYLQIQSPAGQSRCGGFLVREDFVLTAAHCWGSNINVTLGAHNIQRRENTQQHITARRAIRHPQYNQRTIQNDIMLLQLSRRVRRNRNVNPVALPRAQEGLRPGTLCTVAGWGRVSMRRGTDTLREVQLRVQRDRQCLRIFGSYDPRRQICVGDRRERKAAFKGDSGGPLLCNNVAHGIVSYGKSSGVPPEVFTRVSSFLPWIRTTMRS

[2] = target: Chymotrypsin (2.5 nM), Novo Nordisk A/S
[3] = target: recombinant human activated protein C (5 nM), Novo Nordisk A/S (human) (UniProt P04070)
[4] = target: human Factor XIa (1 nM) (human) (UniProt P03951)
[5] = target: human Factor Xa (3 nM) (human) (UniProt P00742)
[6] = target: Leukocyte Elastase, purified at Novo Nordisk A/S using the method of Baugh and Travis
[7] = target: recombinant human Factor VIIa (300 nM), Novo Nordisk A/S (human) (UniProt P08709)
[8] = target: glandular kallikrein (1 U/ml), Sigma, St Louis, MO
[9] = target: Urokinase (5 nM), Serono, Freigung, Germany
[10] = target: Trypsin (8 nM), Novo Nordisk A/S, Bagsvaerd, Denmark
[11] = target: human Factor XIIa (30 nM) (human) (UniProt P00748)
[12] = target: plasma kallikrein (3 nM), Kabi

Question: Which % Inhibition [1] does the source give for “APPH Kunitz-type inhibitor domain as tested in Table 3” here?
Answer: 0%

Question: What about the % Inhibition [2] of the same substance?
Answer: 61%

Question: What about the % Inhibition [3] of the same substance?
Answer: 0%

Question: And the % Inhibition [4]?
Answer: 99.8%

Question: What about the % Inhibition [5] of the same substance?
Answer: 0%

Question: What about the % Inhibition [6] of the same substance?
Answer: 4%

Question: What about the % Inhibition (Plasmin (10 nM), Kabi) of the same substance?
Answer: 77%

Question: And the % Inhibition [7]?
Answer: 15%

Question: What about the % Inhibition [8] of the same substance?
Answer: 97%

Question: And the % Inhibition [9]?
Answer: 2%

Question: And the % Inhibition [10]?
Answer: 99.6%

Question: What about the % Inhibition [11] of the same substance?
Answer: 6%

Question: What about the % Inhibition [12] of the same substance?
Answer: 69%
